This note sets out measurements from article PMC10881024, “No evidence for a direct extracellular interaction between human Fc receptor–like 3 (MAIA) and the sperm ligand IZUMO1” (Science Advances, 2024).

The target in the experiment is T1, human IZUMO1 entire ectodomain, biotinylated, rat Cd4 domains 3 and 4 tagged (bait construct) (human, UniProt Q8IYV9 22-285, enzymatically biotinylated (BirA) on the biotinylation target sequence).
T1 construct: IZUMO1, human, entire ectodomain, truncated at P285 of Q8IYV9; Monomer as expressed; also called IZUMO1 bait; biotinylated monomeric IZUMO1; source: HEK293-6E, transient transfection, cotransfected with secreted BirA; conditioned medium dialysed in PBS, or purified from spent medium on Ni-NTA (SAVEXIS); not shown: domains 3 and 4 of rat CD4, C-terminal, kept
T1 sequence (Q8IYV9 22-285): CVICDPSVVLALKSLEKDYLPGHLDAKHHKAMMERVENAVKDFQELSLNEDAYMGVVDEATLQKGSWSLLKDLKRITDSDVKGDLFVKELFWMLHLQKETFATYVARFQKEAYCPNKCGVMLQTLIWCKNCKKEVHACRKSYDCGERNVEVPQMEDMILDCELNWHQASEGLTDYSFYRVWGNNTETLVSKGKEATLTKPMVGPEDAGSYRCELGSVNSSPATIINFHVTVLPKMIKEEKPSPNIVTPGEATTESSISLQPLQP
Put plainly: SAVEXIS; purified monomeric biotinylated baits at 13.4 nM captured on streptavidin-coated plates 16 hours at 4°C; preys made multimeric by clustering biotinylated monomers around streptavidin-HRP, 4.4 nM, 1 hour at room temperature; HBS-T washes with desthiobiotin; tetramethylbenzidine, absorbance at 650 nm. As to conditions: both partners purified.

B1: human JUNO entire ectodomain, biotinylated, rat Cd4 domains 3 and 4 tagged (bait construct) (domain or fragment, UniProt A6ND01 20-231, looked up)
chain: GDELLNICMNAKHHKRVPSPEDKLYEECIPWKDNACCTLTTSWEAHLDVSPLYNFSLFHCGLLMPGCRKHFIQAICFYECSPNLGPWIQPVGSLGWEVAPSGQGERVVNVPLCQEDCEEWWEDCRMSYTCKSNWRGGWDWSQGKNRCPKGAQCLPFSHYFPTPADLCEKTWSNSFKASPERRNSGRCLQKWFEPAQGNPNVAVARLFASSAP
modifications: enzymatically biotinylated (BirA) on the biotinylation target sequence
notes: JUNO, human, entire ectodomain, truncated at P231 of A6ND01; also called JUNO bait; human JUNO (bait); source: HEK293-6E, transient transfection, cotransfected with secreted BirA; conditioned medium dialysed in PBS (AVEXIS), or purified from spent medium on Ni-NTA (SAVEXIS); not shown: domains 3 and 4 of rat CD4, C-terminal, kept
For B1, the binding result was “binds”.
